Laboratory results from the supplement of paper PMC10567573.

B1: PSD2 (parent)
chain: PLMGETQERERVLTHFSRRYCQCN

Variants of: B1
Experiment: protein stability index of a GFP-peptide fusion (GPS, HEK-293T) (PSI 1-6); higher = more stable
Conditions: c terminus: a fixed tail appended
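Note: lentivirally expressed fusions sorted by FACS into six bins by GFP to DsRed ratio, PSI derived from sequencing read proportions per bin multiplied by bin number.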

Going from P1L to P1D, the protein stability index rises from 1.67 to 1.82.

First: P1C
Second: P1S
The protein stability index of the first is lower: 2.34 for the first, 2.98 for the second.

Compared with P1N, P1I is lower in protein stability index: 2.97 for the first, 2.04 for the second.

First: P1R
Second: P1W
The protein stability index of the first is higher: 4.31 for the first, 2.3 for the second.

First: M3C
Second: M3F
The protein stability index of the first is lower: 2.61 for the first, 2.77 for the second.

Going from M3G to M3P, the protein stability index falls from 4 to 2.72.

First: M3D
Second: M3S
The protein stability index of the first is higher: 3.69 for the first, 2.97 for the second.

Going from M3H to E10Q, the protein stability index falls from 3.22 to 2.33.

First: E10L
Second: E10N
The protein stability index of the first is lower: 2.27 for the first, 2.8 for the second.

Compared with E10R, E10V is higher in protein stability index: 1.82 for the first, 2.31 for the second.

First: E10W
Second: E10D
The protein stability index of the first is lower: 1.87 for the first, 2.44 for the second.

First: E10F
Second: L2R
The protein stability index of the first is lower: 2.19 for the first, 3.08 for the second.

Going from L2K to L2A, the protein stability index rises from 2.57 to 3.59.

Going from V12E to V12R, the protein stability index falls from 3.34 to 3.15.

Going from V12P to V12H, the protein stability index rises from 2.94 to 3.24.

Compared with V12D, V12C is higher in protein stability index: 2.81 for the first, 4.07 for the second.

Compared with Y20H, Y20L is higher in protein stability index: 2.43 for the first, 3 for the second.

Going from Y20R to Y20C, the protein stability index falls from 3.95 to 3.91.

First: Y20V
Second: R18H
The protein stability index of the first is higher: 4.11 for the first, 3.96 for the second.

Compared with R18M, R18Q is higher in protein stability index: 2.14 for the first, 2.77 for the second.

First: R18Y
Second: R18T
The protein stability index of the first is lower: 1.97 for the first, 3.09 for the second.

First: R18K
Second: R18D
The protein stability index of the first is lower: 3.09 for the first, 4.01 for the second.

Going from R18E to F16T, the protein stability index falls from 4.21 to 3.91.

First: F16A
Second: F16Y
The protein stability index of the first is higher: 3.85 for the first, 2.99 for the second.

Going from F16N to Q7G, the protein stability index falls from 3.58 to 2.42.

Compared with Q7D, Q7P is lower in protein stability index: 3.72 for the first, 2.77 for the second.

Compared with Q7K, Q7A is higher in protein stability index: 2.4 for the first, 3.21 for the second.

Compared with Q7S, G4Y is lower in protein stability index: 3.11 for the first, 2.06 for the second.

Compared with G4C, G4P is higher in protein stability index: 2.49 for the first, 3.62 for the second.

Compared with G4Q, G4D is higher in protein stability index: 2.43 for the first, 3.24 for the second.

Going from G4N to G4L, the protein stability index falls from 2.92 to 2.02.

Compared with G4H, R19I is lower in protein stability index: 2.93 for the first, 2.54 for the second.

Going from R19K to R19F, the protein stability index falls from 3.17 to 2.88.

Going from R19M to R19L, the protein stability index rises from 2.22 to 2.4.

Going from R19V to R19Y, the protein stability index falls from 3.09 to 1.98.

Going from R19W to R19A, the protein stability index rises from 2.14 to 2.98.

Compared with T14M, T14V is lower in protein stability index: 2.72 for the first, 2.69 for the second.

Going from T14R to T14S, the protein stability index rises from 2.73 to 3.18.

Going from S17V to S17C, the protein stability index rises from 2.44 to 4.84.

Compared with S17Y, S17H is higher in protein stability index: 2.89 for the first, 3.2 for the second.

First: S17W
Second: S17D
The protein stability index of the first is lower: 1.52 for the first, 3.37 for the second.

Going from S17M to S17P, the protein stability index rises from 2.51 to 3.18.

First: S17T
Second: S17R
The protein stability index of the first is lower: 2.15 for the first, 2.42 for the second.

First: S17L
Second: R11L
The protein stability index of the first is lower: 1.99 for the first, 3.11 for the second.

Going from R11T to R11W, the protein stability index falls from 3.06 to 2.19.

First: R11C
Second: R11M
The protein stability index of the first is higher: 3.88 for the first, 2.64 for the second.

Going from R11A to R11N, the protein stability index falls from 3.42 to 3.14.

First: R11F
Second: R9S
The protein stability index of the first is lower: 1.85 for the first, 2.49 for the second.

Going from R9A to R9I, the protein stability index falls from 3.5 to 2.07.

First: R9M
Second: E8S
The protein stability index of the first is lower: 2.16 for the first, 2.39 for the second.

Compared with E8M, E8L is higher in protein stability index: 1.62 for the first, 1.89 for the second.

Compared with E8Y, E8P is higher in protein stability index: 1.79 for the first, 2.27 for the second.

Compared with E8N, E8C is lower in protein stability index: 2.46 for the first, 2.17 for the second.

Compared with E8I, N24G is higher in protein stability index: 2.69 for the first, 3.05 for the second.

First: N24A
Second: N24I
The protein stability index of the first is lower: 3.04 for the first, 3.07 for the second.

Going from N24K to N24V, the protein stability index rises from 2.2 to 2.69.

Going from N24H to N24Q, the protein stability index falls from 3.21 to 2.88.

Going from N24R to N24M, the protein stability index rises from 2.14 to 2.96.

First: E5M
Second: E5R
The protein stability index of the first is lower: 1.87 for the first, 2.39 for the second.

First: E5H
Second: E5I
The protein stability index of the first is higher: 2.77 for the first, 2.64 for the second.

First: E5G
Second: E5Y
The protein stability index of the first is higher: 2.46 for the first, 1.83 for the second.

First: E5Q
Second: Q22T
The protein stability index of the first is lower: 2.07 for the first, 3.08 for the second.

Compared with Q22R, Q22K is lower in protein stability index: 3.98 for the first, 3.02 for the second.

Going from Q22W to Q22Y, the protein stability index falls from 2.49 to 2.08.

Going from L13D to L13K, the protein stability index rises from 3.18 to 3.57.

Going from L13Q to L13I, the protein stability index rises from 3.5 to 3.55.

First: H15V
Second: H15M
The protein stability index of the first is lower: 2.31 for the first, 2.56 for the second.

Going from H15K to H15A, the protein stability index falls from 3.41 to 2.62.

First: H15R
Second: C23L
The protein stability index of the first is lower: 2.74 for the first, 2.9 for the second.

Compared with C23H, C23G is higher in protein stability index: 3.44 for the first, 3.56 for the second.

First: C23M
Second: C21G
The protein stability index of the first is lower: 2.92 for the first, 4.23 for the second.

First: C21L
Second: C21S
The protein stability index of the first is lower: 3.23 for the first, 3.53 for the second.

Compared with C21A, T6I is lower in protein stability index: 3.46 for the first, 2.38 for the second.

Going from T6P to T6N, the protein stability index falls from 3.02 to 2.21.

Compared with T6M, T6E is higher in protein stability index: 2.52 for the first, 3.05 for the second.

Going from T6G to T6W, the protein stability index falls from 2.84 to 2.83.
